pKd: −log10 of the molar value.
Target: Active site-blocked human EGR-bound FIXa (human) (UniProt P00740)
Experiment: SPR

Sequence of UniProt P00740 (P00740 47-191, chain 1 of 2): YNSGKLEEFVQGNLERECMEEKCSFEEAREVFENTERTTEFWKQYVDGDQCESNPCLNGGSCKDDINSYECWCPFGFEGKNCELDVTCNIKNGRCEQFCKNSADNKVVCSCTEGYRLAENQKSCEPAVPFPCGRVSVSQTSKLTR
Sequence of UniProt P00740 (P00740 227-461, chain 2 of 2): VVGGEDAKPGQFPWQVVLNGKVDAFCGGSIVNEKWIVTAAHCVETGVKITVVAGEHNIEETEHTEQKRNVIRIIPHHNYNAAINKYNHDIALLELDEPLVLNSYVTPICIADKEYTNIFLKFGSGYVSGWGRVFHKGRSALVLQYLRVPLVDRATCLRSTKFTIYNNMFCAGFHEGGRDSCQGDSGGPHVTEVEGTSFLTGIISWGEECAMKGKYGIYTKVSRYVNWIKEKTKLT

“B domain-deleted FVIII double mutant K1813A/K1818A (natural protein)” gave a pKd of 8.33.

Work on “B domain-deleted FVIII mutant K1813A (natural protein)” yielded a pKd of 8.41.

Substance “B domain-deleted FVIII mutant K1818A (natural protein)” has a pKd of 8.29.

For “B domain-deleted WT-FVIII lacking Q744-S1637 (natural protein)”, the pKd was 8.20.

From publication PMC10139940
